Test results: paper PMC3197615

Key:
[1] = target: rat Ephrin A4 on transduced WOP cells (rat)
[2] = target: human Ephrin A4 on transduced WOP cells (human) (UniProt P52798)
[3] = target: mouse Ephrin A4 on transduced WOP cells (mouse) (UniProt O08542)
Sequence of UniProt O08542 (O08542 26-175): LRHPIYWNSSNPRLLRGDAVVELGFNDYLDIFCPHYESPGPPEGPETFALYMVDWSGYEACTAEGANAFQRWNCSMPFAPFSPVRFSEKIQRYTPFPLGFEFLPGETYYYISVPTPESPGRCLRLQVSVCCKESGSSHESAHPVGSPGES

Sequence of UniProt P52798 (P52798 26-170): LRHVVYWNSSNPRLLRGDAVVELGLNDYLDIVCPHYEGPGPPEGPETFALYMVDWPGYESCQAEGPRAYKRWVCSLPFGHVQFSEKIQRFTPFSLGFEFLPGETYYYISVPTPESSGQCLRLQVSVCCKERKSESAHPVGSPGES

IAPE Env (IAPE D2*) on transfected 293T cells (natural protein)
fold increase of the titre of IAPE Env pseudotypes over no-Env pseudotypes on transduced WOP cells (fold increase) [1]: 16
fold increase of the titre of IAPE Env pseudotypes over no-Env pseudotypes on transduced WOP cells (fold increase) [2]: 231
fold increase of the titre of IAPE Env pseudotypes over no-Env pseudotypes on transduced WOP cells (fold increase) [3]: 16
